Test results: the Immune Epitope Database (IEDB)

Legend:
Assay in all cases: IEDB peptide-MHC binding, purified MHC/competitive/radioactivity; filed as Kd, often an IC50 or EC50 that approximates it; ≥ and ≤ were set here for values at or beyond the usual limits of such assays
HLA-A*68:01 = target: HLA-A*68:01
HLA-A*33:01 = target: HLA-A*33:01
HLA-A*31:01 = target: HLA-A*31:01
HLA-A*03:01 = target: HLA-A*03:01
HLA-A*11:01 = target: HLA-A*11:01
[1] = source organism: SARS coronavirus Tor2
[2] = source organism: Dengue virus 1 Brazil/97-11/1997
[3] = source organism: Dengue virus 3 Singapore/8120/1995
[4] = source organism: Dengue virus 2 Jamaica/1409/1983
[5] = source organism: Vaccinia virus WR
[6] = source organism: Dengue virus 4 Philippines/H241/1956
[7] = source organism: Dengue virus 3 Martinique/1243/1999

Row | Sequence | Kd (HLA-A*68:01; [5]) | Kd (HLA-A*33:01; [5]) | Kd (HLA-A*31:01; [5]) | Kd (HLA-A*03:01; [5]) | Kd (HLA-A*11:01; [5]) | other results
1 | AINSVPWSK |  |  |  |  |  | Kd (HLA-A*68:01; [1]): 1780 nM; Kd (HLA-A*33:01; [1]): 10800 nM; Kd (HLA-A*31:01; [1]): 1180 nM; Kd (HLA-A*03:01; [1]): 13 nM; Kd (HLA-A*11:01; [1]): 1.85 nM
2 | ALFEPEREK |  |  |  |  |  | Kd (HLA-A*03:01; [2]): 58.7 nM
3 | ALILAYSNK |  |  |  |  |  | Kd (HLA-A*68:01; [1]): 4520 nM; Kd (HLA-A*33:01; [1]): ≥ 43300 nM; Kd (HLA-A*31:01; [1]): 3800 nM; Kd (HLA-A*03:01; [1]): 48.6 nM; Kd (HLA-A*11:01; [1]): 19.6 nM
4 | AMCLNTFVLK |  |  |  |  |  | Kd (HLA-A*03:01; [3]): 9.37 nM; Kd (HLA-A*11:01; [3]): 23.3 nM
5 | AVAPSMTMR |  |  |  |  |  | Kd (HLA-A*11:01; [4]): 32.8 nM
6 | AVLSAATETY | 3950 nM | 8800 nM | 10400 nM | 237 nM | 271 nM | 
7 | CTDESRDRK | 169 nM | ≥ 77700 nM | ≥ 54700 nM | 5960 nM | 219 nM | 
8 | DIKLDAVLDR | 473 nM | 156 nM | 17900 nM | ≥ 41600 nM | ≥ 69800 nM | 
9 | DSLLITNTK | 37.1 nM | 5.16 nM | 18600 nM | 2710 nM | 661 nM | 
10 | DVKASMLEKY | 558 nM | 16700 nM | ≥ 36000 nM | ≥ 24700 nM | 4940 nM | 
11 | EDTMTYKCPR |  |  |  |  |  | Kd (HLA-A*33:01; [2]): 804 nM
12 | EIIGGNDMY | 55 nM | ≥ 77700 nM | ≥ 77900 nM | 5310 nM | ≥ 35100 nM | 
13 | ELALTDVEK | 1.16 nM | 5810 nM | 9810 nM | 1560 nM | 513 nM | 
14 | ELVTRKCPQK | 1400 nM | ≥ 32000 nM | ≥ 70000 nM | 7420 nM | 513 nM | 
15 | EMYPRHRYSK | 27.8 nM | 326 nM | 1150 nM | 126 nM | 1110 nM | 
16 | ETFKIDAVR | 1.61 nM | 20.7 nM | 107 nM | ≥ 28700 nM | 2730 nM | 
17 | EVFGSTGDY | 14.2 nM | ≥ 77700 nM | ≥ 77900 nM | 3140 nM | 13.1 nM | 
18 | EVHWNYKER |  |  |  |  |  | Kd (HLA-A*68:01; [6]): 15.2 nM
19 | EYRLRGEAR |  |  |  |  |  | Kd (HLA-A*33:01; [4]): 44.2 nM
20 | FLKSGAVVK | 43.8 nM | 19500 nM | 4770 nM | 13.5 nM | 347 nM | 
21 | FMEMFFDYNK | 231 nM | 2240 nM | 720 nM | 552 nM | 88 nM | 
22 | FSNTIQSYK | 5.84 nM | 2000 nM | 77.7 nM | 25.5 nM | 11 nM | 
23 | FSTSAADIK | 2.57 nM | ≥ 28900 nM | ≥ 35800 nM | 2200 nM | 222 nM | 

Row | Sequence | Kd (HLA-A*68:01; [5]) | Kd (HLA-A*33:01; [5]) | Kd (HLA-A*31:01; [5]) | Kd (HLA-A*03:01; [5]) | Kd (HLA-A*11:01; [5]) | other results
24 | FVDINRNNK | 25.1 nM | ≥ 46800 nM | 2300 nM | 281 nM | 50.8 nM | 
25 | GADPNACDK | 90.6 nM | 8360 nM | 3840 nM | ≥ 37700 nM | 6240 nM | 
26 | GAGLAFSLMK |  |  |  |  |  | Kd (HLA-A*11:01; [2]): 93.5 nM
27 | GFFLRKLTSR |  |  |  |  |  | Kd (HLA-A*31:01; [7]): 1.35 nM
28 | GISLGLILLK |  |  |  |  |  | Kd (HLA-A*03:01; [6]): 16.5 nM; Kd (HLA-A*11:01; [6]): 79.1 nM
29 | GLLATNNVFR |  |  |  |  |  | Kd (HLA-A*68:01; [1]): 794 nM; Kd (HLA-A*33:01; [1]): 5920 nM; Kd (HLA-A*31:01; [1]): 487 nM; Kd (HLA-A*03:01; [1]): 428 nM; Kd (HLA-A*11:01; [1]): 816 nM
30 | GLLNGQGPMK |  |  |  |  |  | Kd (HLA-A*03:01; [7]): 9.66 nM
31 | GMSYSMCTGK |  |  |  |  |  | Kd (HLA-A*03:01; [4]): 30.8 nM; Kd (HLA-A*11:01; [4]): 440 nM
32 | GSFCTQLNR |  |  |  |  |  | Kd (HLA-A*68:01; [1]): 229 nM; Kd (HLA-A*33:01; [1]): ≥ 33100 nM; Kd (HLA-A*31:01; [1]): 51.1 nM; Kd (HLA-A*03:01; [1]): 1040 nM; Kd (HLA-A*11:01; [1]): 76.1 nM
33 | HSGVDVFYK |  |  |  |  |  | Kd (HLA-A*11:01; [6]): 170 nM
34 | IFSLKDTLKR |  |  |  |  |  | Kd (HLA-A*33:01; [7]): 320 nM
35 | IFVDTMSIY | 882 nM | ≥ 29100 nM | 6760 nM | 18300 nM | 921 nM | 
36 | IIKSDHEFVK | 1820 nM | ≥ 70000 nM | 15700 nM | 4270 nM | 443 nM | 
37 | IMDLHPGAGK |  |  |  |  |  | Kd (HLA-A*03:01; [4]): 40.9 nM
38 | ISFKSINKVY | 6590 nM | ≥ 63300 nM | 9890 nM | 2530 nM | 12200 nM | 
39 | ISKIYTLIYR | 5.02 nM | 0.458 nM | 0.337 nM | 691 nM | 226 nM | 
40 | ISQGAGWSLK |  |  |  |  |  | Kd (HLA-A*03:01; [4]): 199 nM; Kd (HLA-A*11:01; [4]): 214 nM
41 | ISYDPKFEK |  |  |  |  |  | Kd (HLA-A*03:01; [6]): 114 nM; Kd (HLA-A*11:01; [6]): 101 nM
42 | ITFLRPVLK | 1.14 nM | 84.5 nM | 7.61 nM | 4.53 nM | 6.45 nM | 
43 | ITLKIIETY | ≥ 77700 nM | ≥ 77700 nM | 751 nM | ≥ 78000 nM | ≥ 77900 nM | 
44 | IVTSLAIKNY | 1410 nM | 5680 nM | 8820 nM | 1110 nM | 51.7 nM | 
45 | KAERVIDPR |  |  |  |  |  | Kd (HLA-A*31:01; [4]): 56.6 nM
